In US20180221513A1, “CONTRAST-AGENT-LABELED PEPTIDE AMPHIPHILE NANOFIBERS” (Northwestern University, priority 2015, published 2018):
peptoid linker = not defined here

Assays:
[1] = ICP-MS of leg muscles for Gd(III) retention after day 4; assay type: in vivo, mice; settings: after four days; intramuscular PA gel 1 wt %, 10 mol % Gd(III)-PA
Experimental: To measure degradation in vivo, six wild-type mice received approximately 4 μL injections of PA gels at 1 wt % loaded with 10 mol % Gd(III)-PA relative to C16V3A3E3-NH2. The injections were applied with a modified syringe pump designed to inject while withdrawing the needle to produce a gelled track of PA in situ. Injection volume varied because track length varied slightly with mouse size and small variations in each injection geometry. The tract geometry was chosen to give accurate T1 determinations because imaging slice thickness could be greater without volume averaging effects. A total of five legs were injected with PA1, four legs with PA3, and three with 100% C16V3A3E3-NH2 as a control. Mice were imaged at day 0 immediately after injections and again at day 4. The Gd(III)-PA was clearly visible in all cases (FIG. 5). […]
For Gd(III) analysis, mouse leg muscles were excised and digested in 1 mL of nitric acid per gram of tissue in Teflon tubes. […] Digest was diluted and measured using the same conditions as above.
All measurements used a Thermo X series II ICP-MS (Thermo Fisher Scientific, Waltham, Mass., USA) operating with an ESI SC-2 autosampler (Omaha, Nebr., USA). […] The two most common isotopes of Gd, 157Gd and 158Gd, were measured. 115In and 165Ho were measured as internal standards.

[2] = 1H NMRD profiles, fits with modified Florence approach; assay type: physicochemical; settings: fits at 37° C.
Experimental: ^1NMRD profiles were collected with a Stelar Spinmaster FFC-2000-1T fast field cycling relaxometer in the 0.01-40 MHz proton Larmor frequency range, at 293 and 310 K. Longitudinal relaxation rates were measured with an error smaller than 1%. Proton relaxivities were calculated by subtracting the diamagnetic contribution of the peptide nanofibers in the absence of Gd(III) from the relaxation rates of the paramagnetic samples, and normalizing to 1 mM Gd(III) concentration. The profiles were analyzed using the Freed model for outer-sphere relaxation (refs. 48, 49; incorporated by reference in their entireties) and the modified Florence NMRD program for the inner-sphere relaxation (refs. 45, 46, 50; incorporated by reference in their entireties). The effect of static ZFS on nuclear relaxation is considered along with transient ZFS, where modulation is responsible for electron relaxation, provided molecular reorientation time is much longer than electron relaxation time (refs 51,52; incorporated by reference in their entireties). In order to establish which parameter was dominant in relaxivity changes, NMRD profiles of each PA were measured. NMRD profiles for all four PAs at 25° and 37° C. are shown in FIG. 3 with parameter fits obtained using the “modified Florence” approach (refs. 44-46;1 incorporated by reference in their entireties). In the fits, a Lipari-Szabo order parameter S^2 was included to consider the effect of local motions which may superimpose to the global motion of the nanostructures. A smaller S^2 value indicates a less restricted local mobility (e.g., a more flexible linkage between fiber and macrocycle). […] The NMRD fits show τm is primarily responsible for the variation in relaxivity observed upon annealing and Ca2+ cross-linking (Table 2). It is contemplated that annealing and calcium addition change macrocycle presentation on the fiber surface, extending them from the structure with increased peptide packing density and facilitating faster water exchange. […] The ^1H NMRD profiles were analyzed assuming one water molecule regularly coordinated to the Gd(III) ion in the presence of freely diffusing outer-sphere water. The contribution of the coordinated water protons […]) to the relaxation of bulk water protons (R1) largely depends on the τM of coordinated water if τ[…], as expected for Gd(HP-DO3A), according to the following relationship: R1=fM(1/[…]+τM)^-1+Ros where f^M is the mole fraction of ligand nuclei in bound positions and Ros is the outer-sphere contribution. […] is calculated by considering the simultaneous presence of both static (D) and transient (Δt) ZFS, as needed for Gd(III) complexes, through the “modified Florence” NMRD program, 4-6 assuming slow rotation, i.e. the molecular tumbling time τR is much longer than the electron relaxation time Tle. The PA fiber's micron-scale size assures that TR could be fixed to a large, constant value (≥100 ns) in the calculation of the relaxation profile. The ^1H NMRD profiles of PA 1 were repeated at both temperatures using the same Δt value of 0.0142 cm-1, D=0.046 cm-1, θ=42° (angle between the z-axis of the ZFS tensor and the metal-water direction) and a correlation time for electron relaxation τV=24 ps. A distance of closest approach of diffusing water molecules (d) of 7-10 Angstroms should be set, i.e. somewhat larger than usually found in isolated Gd(III) chelates (3.5-4 Å). […]

[3] = T1 and T2 relaxivity (r1, r2) at 1.41 T, Bruker Minispect relaxometer; assay type: physicochemical; settings: 1.41 tesla
Experimental: Using a Bruker Minispect relaxometer operating at 1.41 T, T1 and T2 relaxivity values (r1 and r2) were determined for each agent (Table 1). […] Thermal annealing followed by addition of CaCl2 caused complex changes in the observed agent relaxivity (Table 1). […] This increased accessibility is consistent with a more extended molecular structure as indicated by SAXS.
All concentrations used in relaxivity determination were obtained using ICP-MS. Samples were digested using ACS reagent grade nitric acid (70%) for a least 2 hours at 70° C. Samples were diluted in filtered, deionized water. A standard containing the elements Bi, Ho, In, Li, Sc, Tb, and Y was added to a final concentration of 5 ng/mL (Inorganic Ventures, Christiansburg, Va., USA). Final nitric acid concentration was 3%. The instrument was calibrated using a serial dilution of Gd(III) standards (Inorganic Ventures, Christiansburg, Va., USA) with nitric acid and internal standard concentrations identical to the samples. Calibration was conducted with 1.000, 5.000, 10.00, 20.00, 50.00, 100.0, and 200.0 ng/mL Gd(III) standards.
T1 Measurements were performed at 1.41 T with a Bruker Minispect mq60 magnet, using an inversion recovery sequence. T2 measurements were acquired using a Carr-Purcell-Meiboom-Gill (CPMG) pulse sequence. PAs were weighed out and dissolved in Millipore water to form 1 mg/mL solutions, and then these solutions were serial diluted to 0.5, 0.25, 0.125, 0.05, and 0.01 mg/mL concentrations. For each concentration, T1 and T2 were measured. These solution concentrations were then measured using ICP-MS for relaxivity determination. Samples were lyophilized and resuspended in 50 mM Tris and 150 mM NaCl buffer. These were then adjusted using small volumes of 0.1 M NaOH to reach pH 7.4. T1 and ICP-MS measurements were then taken of these solutions. The relaxometer tubes were heated at 80° C. for 30 min in a water bath. The bath was allowed to come to room temperature over several hours. T1 times were measured. Finally, 100 μL of 20 mM CaCl2 solution was added to each tube. The tubes were vortex-mixed and allowed to stand for 20 minutes. ICP-MS and T1 measurements were conducted once more.

[4] = Addition of CaCl2 to annealed solution

| Compound | Gd(III) retention: remained in the mouse leg (ICP-MS) [1] | τm (water exchange lifetime), best-fit value ([2]; Annealed) | τm (water exchange lifetime), best-fit value ([2]; Buffered) | τm (water exchange lifetime), best-fit value ([2]; Ca^2+) | S^2 (Lipari-Szabo order parameter), best-fit value [2] | τlocal, best-fit value [2] | r1 (T1 relaxivity) [3, 4] | r2 (T2 relaxivity) [3, 4] | r1 (T1 relaxivity) ([3]; After Thermal Annealing) | r2 (T2 relaxivity) ([3]; After Thermal Annealing) | r1 (T1 relaxivity) ([3]; H2O) | r2 (T2 relaxivity) ([3]; H2O) | r1 (T1 relaxivity) ([3]; Tris Buffer (pH 7.4)) | r2 (T2 relaxivity) ([3]; Tris Buffer (pH 7.4)) |
| --- | --- | --- | --- | --- | --- | --- | --- | --- | --- | --- | --- | --- | --- | --- |
| CCCCCCCCCCCCCCCC(=O)N[C@H](C(=O)N[C@H](C(=O)N[C@H](C(=O)N[C@@H](C)C(=O)N[C@@H](C)C(=O)N[C@@H](C)C(=O)N[C@@H](CCC(=O)O)C(=O)N[C@@H](CCC(=O)O)C(=O)N[C@@H](CCC(=O)O)C(=O)NCC(=O)N(CC(=O)N(CC(=O)N(CC(N)=O)Cc1cn(CC(O)CN2CCN(CC(=O)O)CCN(CC(=O)O)CCN(CC(=O)O)CC2)nn1)Cc1cn(CC(O)CN2CCN(CC(=O)O)CCN(CC(=O)O)CCN(CC(=O)O)CC2)nn1)Cc1cn(CC(O)CN2CCN(CC(=O)O)CCN(CC(=O)O)CCN(CC(=O)O)CC2)nn1)C(C)C)C(C)C)C(C)C (some centres unmarked) (Gd complex, metal not drawn) [PA3] | 54±9% | – | – | – | – | – | – | – | – | – | – | – | – | – |
| C16-VVVAAAEEE-(peptoid linker)-(Gd(HP-DO3A) macrocycle) (C16-VVVAAAEEE-{peptoid linker-Gd(HP-DO3A)}; reading uncertain; also: Gd(III) chelated in HP-DO3A macrocycle) [PA2, V3A3E3 peptide amphiphile, Gd(III) contrast agent conjugated at the C-terminus without a glycine linker] | – | 540 ns | 640 ns | 410 ns | 0.3 | 4 ns | 21.7 ± 0.1 mM⁻¹ s⁻¹ | 45 ± 2 mM⁻¹ s⁻¹ | 16.9 ± 0.2 mM⁻¹ s⁻¹ | 28.6 ± 0.6 mM⁻¹ s⁻¹ | 17.3 ± 0.8 mM⁻¹ s⁻¹ | 39 ± 2 mM⁻¹ s⁻¹ | 16.7 ± 0.2 mM⁻¹ s⁻¹ | 32.2 ± 0.5 mM⁻¹ s⁻¹ |
